Measured values reported in patent publication US20250011453A1, “METHODS FOR TREATING CANCER USING A COMBINATION OF A PD-1 ANTAGONIST, AN ILT4 ANTAGONIST, AND CHEMOTHERAPEUTIC AGENTS” (Merck Sharp & Dohme LLC, priority 2021, published 2025).

Experiment: Phase 1 open label, multi-arm, multi-center study of MK-4830 as monotherapy or in combination with pembrolizumab (NCT03564691): safety and tolerability
Assay type: in vivo, human

Substance: MK-4830: anti-ILT4 antibody; light chain SEQ ID NO:5, heavy chain SEQ ID NO:10 (Table 4)
- Grade 3 drug-related AE (1600 mg dose level, MK-4830 monotherapy cohort): one episode of transient Grade 3 blood pressure increase
- participants with one or more drug-related AEs (51 treated participants (monotherapy and pembrolizumab combination pooled), preliminary data, majority Grade 1): 51%
- Grade 4 or 5 drug-related AEs or SAEs (all participants (51 treated), preliminary data): no Grade 4 or 5 drug-related AEs or SAEs
- target dose limiting toxicity (DLT) rate (participants with advanced solid tumors, MK-4830 monotherapy up to 1600 mg and MK-4830 up to 800 mg plus pembrolizumab, May 10, 2019 data cutoff): not reached in any of the cohorts
